The DeepSol protein solubility set

experiment: soluble on expression in E. coli; label from the status in PepcDB or PDB records

Row | Sequence | soluble on expression in E. coli
1 | MSTCSDESCDKECPLCMETLELDDINFYPCKCEYQICRFCWHRIRTDENGLCPACRQPYPEDPVNFKPMTTDDVRKHKDEQRLKKQAEKLKLSDARQYLCNYRVLQKNLVYVVGLSPRVADPEILKKNEYFGRYGKIQKIVTSATPSLPAPHLPPSHTAYVTYKRVDDALRAIQGVHNSMLDGRLVKASLGTTKYCSSFLNSRKCFKPVGECMYLHENAEAEISFTKDDMHLGKHTEYEKRLIESMNSRPPPPQSTLASQLDKILAPTSNSPRRYLEDDSDTVDDVERTGSAIHMCADDPDDDDADSTNTSNSIDDPAPSNPADETVNSRRSNQTARERQWSERDEISVAPSNTPPTDPEGNENEFEEDIHRNDVSDLMSKLDVNDDRLARTSFSENDYLGIPAPAKHQEAPAPLMQWEALLGLSSPSAQSTIVEPSSLFPTFKMDSGFNSQSLFGTHTSSTPSFRREASPPPGLARFNSDDDLGFDPFTESSKGLSALLQEEQEQIPPHNSASNHTLDVLKQLFGQLPEQRQSTQQHPQHLQSSHQQHPLQQNQDQHHSFLHQLHAQQQHQQQQFAADMNRQQDYMYSRLMSQQQQQSQQQRQFDSTPGFSHPFGSMQQQQQSSQQQQHQSQSSQSSSLLQDLFNRQQQQHQAQQQAQQHQQQQMYAGINSYMYNDMLMPRVPFGMAPPPGLGGPSTNRSSTTQQAPPHMTQQSQQQQQQQQSSMGLFGMGGHQSMMQDHQSQQPQSAQDAFKALLPNVNVRFMDDNSMSRWSHENSLRSSAVPPPPGFSSVMNR | not soluble
2 | MNVWLLGRGELRRRHDDVLQLERAFLTDRTGLHFVNARSSEDLLALAESRRAEQQWPVLDAEWISPVGTDTCDDLVWQNLESTLDGRPDTFYSTAGFEAGNTLSGTGELAPGEAFLAYRFWRPVRVYAVQLRAFQADFHPGRPVYPFQVARVGVGCSLQAGMSLSYGADASAPGTSCNYRCFCTTEQQTLVFDDPMVGVYLVICLKGFPQQQLTDRLHYAAVSGIRVFGEPISSPALENELSCLISRGFILDGRDAARWLDLRSAQEHAAPMHIPEDEVI | not soluble
3 | GPGSMFSCCLRSLARGREPQVLGTAVPSFYNFPYRAQDVLHLYRDLLKLIYQHPPQERADLLFRLRNEFHSRRHLSAPKLISAAIRRGEGILNVQRGLMESRSVRARAVASRERGAQSVDGLWDQLQIVSGHMLPGLRNFSASRGLSRGSYVRQATTQAVYSRRK | not soluble
4 | FSQHVSANLNLPSPSLNTPLNWLLTSVDEVMFNQQLHGSAVHINCAFPEPLYSDGEKSAYQSYLSSVEAWRKGGQTYTQRFVSPSFRDIPFCADRKGVVVIGSLSAEHAQEAKAFAQQMGWPVLADPQSGVSSDWSHYDLWLQQPKLASQLDECDLVLQFGSRIISKRLNQWINKQVSQSQQGRDVQYWFISPSLSRDNQTHLPQLHWVASPKSWVERVDVKSSSTQGWADGLLTDIAHVRAHISDEFLFSSASTLNEIALAADIEERTQSVDVFLGNSLFVRLVDMFGRLNTEVFTNRGASGIDGLFATASGVQRSRGKPLLMYIGDTSALYDLNSLALFSRNDLPSVLVVTNNDGGAIFDMLPVPQEHRTAYYQMPHGYQFEHAAKQFGLKYEKPTTLQMYQAMVADHLSSGQGTMLVEVQTPPSQAAELIKAFNKSLHASL | not soluble
5 | MRTHDDTWDIKTSVGATAVMVAAARAVETDRPDPLIRDPYARLLVTNAGAGAIWEAMLDPTLVAKAAAIDAETAAIVAYLRSYQAVRTNFFDTYFASAVAAGIRQVVILASGLDSRAYRLDWPAGTIVYEIDQPKVLSYKSTTLAENGVTPSAGRREVPADLRQDWPAALRDAGFDPTARTAWLAEGLLMYLPAEAQDRLFTQVGAVSVAGSRIAAETAPVHGEERRAEMRARFKKVADVLGIEQTIDVQELVYHDQDRASVADWLTDHGWRARSQRAPDEMRRVGRWVEGVPMADDPTAFAEFVTAERL | soluble
6 | MTESVFAVVVTHRRPDELAKSLDVLTAQTRLPDHLIVVDNDGCGDSPVRELVAGQPIATTYLGSRRNLGGAGGFALGMLHALAQGADWVWLADDDGHAQDARVLATLLACAEKYSLAEVSPMVCNIDDPTRLAFPLRRGLVWRRRASELRTEAGQELLPGIASLFNGALFRASTLAAIGVPDLRLFIRGDEVEMHRRLIRSGLPFGTCLDAAYLHPCGSDEFKPILCGRMHAQYPDDPGKRFFTYRNRGYVLSQPGLRKLLAQEWLRFGWFFLVTRRDPKGLWEWIRLRRLGRREKFGKPGGSA | soluble
7 | MGSDKIHHHHHHMTSHRAEFPIKLRFLFEPARYKILYGGRGGAKSWGVARALLIQAAATPLRILCVREFQNSIVESVHHLLKAQIEAIGLNSFYEVHNNVIRGINGSEFIFAGLHSNVTRIKSFEGVDRVWVEEAQTVSKTSWDTLIPTIRKEGSEIWVTYNPELNTDETHQRFVVNPPAGAVVVKINWNDNPWFPEILRREKDGLKARDPDAYQNVWEGNCRVTLEGAVYAKELRLAQEEGRIRSVPYDEAKPVHTFFDLGWADNTSIWFAQTVGNELRLIDYYSNSQMPIQHYIGVLQNKGYMYGTDWLPHDARARTLATGRSVEEIMLAAGRKVRIVPNLSIHDGINAARTIFPRCYFDEQNCAEGLQSLRHYRFDVDRDSGQFSARPLHDYHSHAADAFRYFAMAIEEDKPAASARGINMKGWRA | not soluble
8 | MAHHHHHHMRCFSTKSTAPTKGFHDNASGKGSNSVPVKSSALFIEALSKRRTIYSLGNKLSQSHSEVIEIIEGTIRECPSSFNIKSSTVVILFGADHQKVWDIVKAALKKVTSEEQYAQSEMKVNNSFAAGAGTILFYEDGAAIKMQQKAFPRYAANVSTFSQQSSAMAQFAVWSALAQDGIGASLQHYNELIEADLRAAFDVPEEWQLIAQMPFGSIETPADKKTRNSDKGRVVVHGAQR | soluble
9 | MGSDKIHHHHHHMTWVGVVDAGRHVEATMKLELGFDPRDLLRKLGPGNSIAKFAKNQTIFAQGDEADSVYLLLQGRIKVVVLSAQGKEAATGMVAPGQFFGDGCLVGEATRTTTTIAMQDCLVAAIPSTRLIETLRAQPDFAELFVRHLLLRNRRIEEDLLDQLLNCSEKRLARLLLRLADFEEGGEPQPIAPHISQETLAEMIGTTRSRVSYFMNKFRKLGLISYDRTIEVHPGRLSAVLHDRAEARG | not soluble
10 | MLYVILRGRLGNNLFQIATAASLTQNFIFCTVNKDQERQVLLYKDSFFKNIKVMKGVPDGIPYYKEPFHEFSRIPYEEGKDLIIDGYFQSEKYFKRSVVLDLYRITDELRKKIWNICGNILEKGETVSIHVRRGDYLKLPHALPFCGKSYYKNAIQYIGEDKIFIICSDDIDWCKKNFIGKRYYFIENTTPLLDLYIQSLCTHNIISNSSFSWWGAWLNENSNKIVIAPQMWFGISVKLGVSDLLPVSWVRLPNNYTLGRYCFALYKVVEDYLLNILRLIWKRKKNMLEHHHHHH | not soluble
11 | MGSDKIHHHHHHMKPYIVAHMMSSLDGRSLTDGWHLDYASDLYETTAATFEADGWICGRVTMQEISHGKDYPAGLASGAVPRTDHFVERNADQYAISIDPQGRVAWKSNTALKSHVIEVLTEQVADDYLAYLQSIGVSYVFGGKTGIDLDKVVQTLARELGVKKLIVEGGSHVSGAFVNAGLVDEVSVLILPLVDGRSEHPSSFEVAMEKWQAPAYLKLTSVEKTDHDAVWLRYTKA | not soluble
12 | MSLPNIFVEELVHTPIEKQVIEIVERKGIGHPDSLADGMAEAMSRELSREYIRRFGAVLHHNTDETQIVAGRSNPQFGGGEVIEPIYVLLVGRATKFFNGEYIPTDKIALKAARDYIRQHMQNLDPELDVVFNVRLGEGSTDLQDVFRRKSGNVALANDTSFGIGFAPLSETERLVFNVERRIYEEFRKKNPAIGEDVKVMGLREKDRISLTIAAAFVDRYVANIKEYDAIKEELENFVKEISSEYTEREVEVFVNTADDYETGCVYLTVTGTSAENGDDGSVGRGNRCNGLITPGRPMSMEASSGKNPINHVGKIYNLLANQIAARIAEEVEGVEEVYVRILSQIGKPINEPKALSVQVIPKSGYDISKLERPARDIAEEMIANVGKITDMVIEGKVRTFEGHHHHHH | soluble
13 | MNQLCRAVPSLRSAVRLASSGRLYTKKHEWVLVENGVGTVGITDFATEQLGDVVFIELPDEGTEISKGDSTGAVESVKAASDIYAPISGTVTQKNVKLEEEAGLINKSPFEKGWLYKLKVKSADELEKLLNEEQYAKFKKDEEAAH | not soluble
14 | MNDFNTAFANIDEKAIPNDEKGAANGVATLNSSGKLAQMPSASDVGALPITGGEMQGALKLKANQYGGSGPADEKYALDCQNSNIVNVNRILTADPAGSASEGWGFQREDDPDAYDVIWASNGTLYFTPGFKYNTPPYPANQRVLATTDNIALTNYLRQEYNKLKESEGTPTLNDIINGFGFCYNDSSNGAGLDGTYLTVSGMLDNKYRLQLLGQYNGSNWLAYRTRNGDEQSWNPWHKVLTDNINAAISARHQYTSSSYPQIYGNGILQLGGDSRNEYGVVLRSNGTDEANAFRPSVNAGTTGHLYLGVANQKWRAVFAQNGTIQTSDRNAKHDITDLDPEKITAFIMGLKPSSYVFNDADSGRTHWGLISQDIEELFPQLGMTSMDFAGFIKSPKTEDYYEDVPETVTDEETGEEKTVTRKELKTRTVEGEYIYSLRYDEFLEHHHHHH | soluble
15 | MGSDKIHHHHHHMNKELASKFLSSIKHEREQDIQTTSRLLTTLSIQQLVQNGLAINNIHLENIRSGLIGKLYMELGPNLAVNDKIQRGDIKVGDIVLVRPAKTKVNTKTKPKVKKVSEDSNGEQAECSGVVYKMSDTQITIALEESQDVIATTFYSYSKLYILKTTNVVTYNRMESTMRKLSEISSPIQDKIIQYLVNERPFIPNTNSFQNIKSFLNPNLNDSQKTAINFAINNDLTIIHGPPGTGKTFTLIELIQQLLIKNPEERILICGPSNISVDTILERLTPLVPNNLLLRIGHPARLLDSNKRHSLDILSKKNTIVKDISQEIDKLIQENKKLKNYKQRKENWNEIKLLRKDLKKREFKTIKDLIIQSRIVVTTLHGSSSRELCSLYRDDPNFQLFDTLIIDEVSQAMEPQCWIPLIAHQNQFHKLVLAGDNKQLPPTIKTEDDKNVIHNLETTLFDRIIKIFPKRDMVKFLNVQYRMNQKIMEFPSHSMYNGKLLADATVANRLLIDLPTVDATPSEDDDDTKIPLIWYDTQGDEFQETADEATILGSKYNEGEIAIVKEHIENLRSFNVPENSIGVISPYNAQVSHLKKLIHDELKLTDIEISTVDGFQGREKDVIILSLVRSNEKFEVGFLKEERRLNVAMTRPRRQLVVVGNIEVLQRCGNKYLKSWSEWCEENADVRYPNIDDYL | not soluble
16 | MIPKVIHYCWFGGNPLPDNLKKYIKTWREQCPDYEIIEWNEHNYDVSKNVFMREAYTKKNFAYVSDYARLDIIYTYGGFYLDTDVELLKSLDPLRIHECFLAREISCDVNTGLIIGAVKGHHFLKSNMSIYDKSDLTSLNKTCVEVTTNLLINRGLKNKNIIQKIDDITIYPRNYFNPKNLLTGKVDCLTSVTYSIHHYEGSWKSSSFISDSLKIRVRLIIDFLFGYGTYRMLLRFLKLKKLEHHHHHH | soluble
17 | IRDFSYGVKFVLSDSQQKILKYPNEDYNIGTYYKGQKLNNIWGYKTIGIAQSQEEMDAHLAKVDQSALGSKWGAGDIMYADLDGDGKISTGSNKLGDTGDRVILGNSTPRFNYGLTIDASWKGIDFRAFFQGIGKRDYWLQGPYFWGSTGLGQWQAAGFKEHWDFWRPEGDPLGANTNAYYPRVARNGGKNTNVQSRYLQNAAYCRLKNIQIGYTLPKTWTEKAGMSSVRVYVSGDNLLTFSDITGIFDPEAIGSTYDANNGKLYPLQRVISVGLNVNF | not soluble
18 | GPLGSLPEELVHAGWEKCWSRRENRPYYFNRFTNQSLWEMPVLGQHDVISDP | soluble
